We go through 72 sequences from the supplement of paper PMC10567573.

A short description of this data set: protein stability index of a GFP-peptide fusion (GPS, HEK-293T) (PSI 1-6); higher = more stable. The note with it: c terminus: a fixed tail appended.

± gives the standard deviation.
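Further: 24-mer peptide tiles fused after GFP, lentivirally expressed, FACS-sorted into six equal bins by GFP/DsRed ratio, decoded by Illumina sequencing, PSI is the read-weighted mean bin number.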

For PGMASHPPIPILELADHIERLKAN [PTPRD], the protein stability index was 3.6 ± 0.18 (treatment: DMSO) and 3.81 ± 0.19 (treatment: MLN4924 1 uM, 8 h).
The like results for PGPPSAPPPPPKEGHQEGLVELPA [SCNN1D] were, in that order, 5.46 ± 0.23 and 5.47 ± 0.17.
The like results for PKDENERSTCNVVQDEFLDTPCTN [DLC1] were, in that order, 5.45 ± 0.15 and 5.41 ± 0.13.
For PKKGPAPSLSPGSSCVKYLIFLSN [TSPAN10], the protein stability index runs as follows: (treatment: DMSO) 2.59 ± 0.64; (treatment: MLN4924 1 uM, 8 h) 2.43 ± 0.21.
The like results for PLESAFDHEDFTGSSSLGFTSSPS [FCHO1] were, in that order, 4.81 ± 0.35 and 5.07 ± 0.15.
The like results for PLHVAQTRLYLRSHRPNMELCRDA [TEKT4] were, in that order, 2.9 ± 0.17 and 3 ± 0.18.
The sequence PNGKHSTNFVSRYDPRFNSWIQLP [KLHL14] had a protein stability index (treatment: DMSO) of 2.32 ± 0.097 and a protein stability index (treatment: MLN4924 1 uM, 8 h) of 2.58 ± 0.24.
Take PNSTFPIDKSMTVVLTFITPMLNP [OR4A15]: the protein stability index was 2.95 ± 0.38 (treatment: DMSO) and 2.97 ± 0.38 (treatment: MLN4924 1 uM, 8 h).
Regarding PPFWDEDQHRLYKQIKAGAYDFPS [CAMK2A], the protein stability index (treatment: DMSO) came to 3.4 ± 0.28 and the protein stability index (treatment: MLN4924 1 uM, 8 h) worked out at 3.54 ± 0.29.
The like results for PPHKHVARPTEVLAGTQLLYAFFT [TRIB3] were, in that order, 2.46 ± 0.21 and 2.43 ± 0.15.
The sequence PPKWQIGEQEFEALMRMLDNLGYR [ADD1] displayed a protein stability index (treatment: DMSO) of 2.35 ± 0.26 and a protein stability index (treatment: MLN4924 1 uM, 8 h) of 2.58 ± 0.22.
The corresponding values for PPPPHPYNPHPGFPELGYSYGGGS [DVL3] are 3.4 ± 0.32 and 3.6 ± 0.32.
The like results for PPWFEGLESRFQSKSGYLRYSCES [DFFB] were, in that order, 2.51 ± 0.19 and 2.54 ± 0.2.
Turning to PQGAVLVQREKDLPNYNWNSFGLR [KISS1], the protein stability index stood at 3.04 ± 0.17 (treatment: DMSO) and 3.13 ± 0.32 (treatment: MLN4924 1 uM, 8 h).
PRLHGAKAILDAEPGPRPALQPSP [TBC1D10A]: the protein stability index (treatment: DMSO) was found to be 4.81 ± 0.19 and the protein stability index (treatment: MLN4924 1 uM, 8 h) amounted to 4.94 ± 0.17.
The like results for PSAAQTLRSFCAWQRGLNTPEDSD [ADAMTS4] were, in that order, 4.29 ± 0.25 and 4.53 ± 0.17.
The like results for PSDFCGLTHLVKLDLSKNKLQQLP [LRRC59] were, in that order, 2.17 ± 0.31 and 2.16 ± 0.17.
The corresponding values for PSLHVVKVLLDCGADPDSRDFDNN [FEM1A] are 3.46 ± 0.14 and 3.82 ± 0.21.
As for PSPAAVPRPPSNPPARGTLKTSNL [TRAF3IP2], the protein stability index (treatment: DMSO) turned out to be 5.12 ± 0.1 and the protein stability index (treatment: MLN4924 1 uM, 8 h) amounted to 4.94 ± 0.21.
The like results for PSSLMETLEQHLNTLEGKKPGNNE [SNAP91] were, in that order, 5.17 ± 0.09 and 5.05 ± 0.17.
The corresponding values for PTLGGGFHVNLGKESRAQTLQNGR [BRF1] are 4.04 ± 0.47 and 4.14 ± 0.33.
The like results for PTQLRALNLTEGFAVLHWKPPQNP [TNXB] were, in that order, 2.8 ± 0.66 and 3.04 ± 0.63.
Regarding PTRCTLEAGAMTFHYIIEQGVCYL [SEC22B], the protein stability index runs as follows: (treatment: DMSO) 2.93 ± 0.96; (treatment: MLN4924 1 uM, 8 h) 3.14 ± 0.46.
In turn, PTSGIVGALMEVMQKRSKAIHSSD [WASL] yielded a protein stability index (treatment: DMSO) of 3.14 ± 0.14 and a protein stability index (treatment: MLN4924 1 uM, 8 h) of 3.39 ± 0.19.
Turning to PTVDLNQVLNETRSQYEALVETNR [KRT34], the protein stability index (treatment: DMSO) stood at 3.37 ± 0.55 and the protein stability index (treatment: MLN4924 1 uM, 8 h) stood at 3.79 ± 0.48.
For PTWWPLPTQVPAAEDYLTWKEWGF [SPAG8], the protein stability index stood at 2.58 ± 0.18 (treatment: DMSO) and 2.35 ± 0.35 (treatment: MLN4924 1 uM, 8 h).
The like results for PVKASRSHQELHRELLMNHRRGLG [FAM107A] were, in that order, 3.73 ± 0.27 and 3.95 ± 0.42.
Regarding PVPATPILQLEECCTHNNSATLSW [TRIM9], the protein stability index came to 3.27 ± 0.16 (treatment: DMSO) and 3.38 ± 0.18 (treatment: MLN4924 1 uM, 8 h).
For PWDKNPEALAKWAEGRTGFPWIDA [CRY1], the protein stability index turned out to be 3.08 ± 0.17 (treatment: DMSO) and 3.04 ± 0.2 (treatment: MLN4924 1 uM, 8 h).
The corresponding values for QAASRIIRNEQFAIRRFQSMPVRL [CDC25B] are 2.75 ± 0.31 and 2.74 ± 0.49.
The corresponding values for QALRGLEGYTWRVAQLEDRRSTTD [ZSWIM9] are 3.91 ± 0.23 and 3.75 ± 0.52.
The like results for QAQPLRTTSTLASSLPGHAAKTLP [EHMT1] were, in that order, 4.33 ± 0.16 and 4.4 ± 0.29.
Regarding QDMSQVSGKESPPVSDTPDEGDEP [IKZF1], the protein stability index was found to be 5.38 ± 0.41 (treatment: DMSO) and 5.62 ± 0.32 (treatment: MLN4924 1 uM, 8 h).
The corresponding values for QDSPGPREAVSQLRELCRLWLRPE [ZNF24] are 3.11 ± 0.32 and 2.9 ± 0.24.
The corresponding values for QEARERWNFDFVTETPLEGDFAWE [CDKN1A] are 4.39 ± 0.29 and 4.29 ± 0.24.
With QEEMAEDPLTYKSRLMVVVKMDSS [RHOBTB2], the protein stability index is 3.45 ± 0.27 (treatment: DMSO) and 3.49 ± 0.24 (treatment: MLN4924 1 uM, 8 h).
The like results for QEHPRQQLATSSFLLFLLTGIVSV [MOSPD3] were, in that order, 3.32 ± 0.49 and 2.83 ± 0.096.
The like results for QELVLKVRIQNPSLRENDFIEIEL [ANKRD40] were, in that order, 2.68 ± 1.1 and 2.38 ± 1.
On to QEYEALLNIKVKLEAEIATYRRLL [KRT18], for which the protein stability index was 2.89 ± 0.28 (treatment: DMSO) and 2.82 ± 0.42 (treatment: MLN4924 1 uM, 8 h).
The like results for QFLNDQISVQNYKQVCKIAALHGL [KLHL14] were, in that order, 2.14 ± 0.28 and 2.17 ± 0.16.
The corresponding values for QGLEQFINKIAGHPLAQNERCLHM [SNX12] are 2.27 ± 0.13 and 2.41 ± 0.21.
The corresponding values for QGQPDPAPRPGPPAGTPPPTARHF [MOSPD3] are 3.77 ± 0.21 and 3.65 ± 1.1.
Regarding QINRLQKLIDRLEKKDLKLEPPEE [NECAB1], the protein stability index by setting is: (treatment: DMSO) 3.22 ± 0.1; (treatment: MLN4924 1 uM, 8 h) 3.7 ± 0.56.
The like results for QKKIGAYDQQIWEKSIEQTQIKGL [PHTF1] were, in that order, 3.76 ± 0.12 and 3.73 ± 0.22.
The corresponding values for QKNKKILKSAKDLPPDALIIEYRG [KMT2E] are 2.82 ± 0.43 and 3.07 ± 0.37.
Regarding QLKKCETRKLSPGKKRCKDIKRLL [SMG5], the protein stability index (treatment: DMSO) is 3.32 ± 0.51 and the protein stability index (treatment: MLN4924 1 uM, 8 h) stood at 3.22 ± 0.18.
The corresponding values for QLNGTANDTAGPELPDPLGGLLDE [NFE2L1] are 5.11 ± 0.32 and 5.37 ± 0.32.
The like results for QLQALNRRFQQTQYLALPERAELA [DLX1] were, in that order, 3.05 ± 0.28 and 3.23 ± 0.085.
QLWGQKKKNSNMTYEKLSRAMRYY [ELF3] yielded a protein stability index (treatment: DMSO) of 2.29 ± 0.042 and a protein stability index (treatment: MLN4924 1 uM, 8 h) of 2.32 ± 0.25.
The like results for QMLRKTVKDEAHQAQKDPKKDRPL [PPP2R5C] were, in that order, 4.89 ± 0.1 and 4.97 ± 0.24.
Consider QQACTHTKETEQLRSQLQTLKQQH [CCDC89], for which the protein stability index reads like this: (treatment: DMSO) 4.71 ± 0.17; (treatment: MLN4924 1 uM, 8 h) 4.65 ± 0.17.
In the case of QRFEVIEFDDGSGSVLRIQPLRTP [PTPRD], the protein stability index was found to be 2.68 ± 0.28 (treatment: DMSO) and 2.99 ± 0.21 (treatment: MLN4924 1 uM, 8 h).
With QRSTVFKTTIPEEEEEEEEAAGVV [LMNB1], the protein stability index reads like this: (treatment: DMSO) 5.6 ± 0.11; (treatment: MLN4924 1 uM, 8 h) 5.56 ± 0.22.
QRTHTGEKPYKCPECGEIFAHSSN [ZNF263]: the protein stability index runs as follows: (treatment: DMSO) 3.6 ± 0.37; (treatment: MLN4924 1 uM, 8 h) 4.07 ± 0.47.
As for QSFTLRGDHRSPASAQKFSSRSTV [NET1], the protein stability index is, setting by setting: (treatment: DMSO) 3.92 ± 0.097; (treatment: MLN4924 1 uM, 8 h) 3.9 ± 0.3.
Turning to QTEETQETALTLACCGGFLEVADF [ANKRD17], the protein stability index runs as follows: (treatment: DMSO) 3.79 ± 0.28; (treatment: MLN4924 1 uM, 8 h) 3.96 ± 0.28.
In the case of QTNSTKNSAAATSPKGTLPPAALE [CAMK2B], the protein stability index came to 5.32 ± 0.16 (treatment: DMSO) and 5.22 ± 0.24 (treatment: MLN4924 1 uM, 8 h).
The corresponding values for QTVFQKKNLQQTTNTTSTQMTNIG [IQUB] are 4.08 ± 0.2 and 4.28 ± 0.27.
The like results for QVFRLAFRSGALDLDSCSRDGALL [MYORG] were, in that order, 2.33 ± 0.29 and 2.14 ± 0.091.
On to QYYDDEKKTWKILTIMPYNSAHHC [KLHL14], for which the protein stability index reads like this: (treatment: DMSO) 2.56 ± 0.43; (treatment: MLN4924 1 uM, 8 h) 2.59 ± 0.42.
QYYEACRKAAKSLIKLGLERFHGV [ACSBG2]: the protein stability index by setting is: (treatment: DMSO) 3.51 ± 1.3; (treatment: MLN4924 1 uM, 8 h) 3.45 ± 0.44.
Turning to RAASAMQFFTKGYQETISDVLNDA [GCH1], the protein stability index (treatment: DMSO) turned out to be 3.38 ± 0.12 and the protein stability index (treatment: MLN4924 1 uM, 8 h) turned out to be 3.53 ± 0.072.
The corresponding values for RCVRVFLEHGADPTVKDLIGGFTA [ASB7] are 2.4 ± 0.78 and 2.04 ± 0.41.
For RDCGEEMQNGAGASRTSTIFLNGN [TNXB], the protein stability index reads like this: (treatment: DMSO) 3.99 ± 0.56; (treatment: MLN4924 1 uM, 8 h) 4.34 ± 0.23.
The corresponding values for RDGEPEPMQKLQDLVNRTPWKKCC [RBBP5] are 4 ± 0.21 and 4.04 ± 0.21.
With RDLASVPPELTASRQSFRMAMGNP [DVL3], the protein stability index turned out to be 3.75 ± 0.32 (treatment: DMSO) and 3.81 ± 0.13 (treatment: MLN4924 1 uM, 8 h).
The like results for RDSSFLISGGFDRTVAIWDVAEGY [WDR88] were, in that order, 2.71 ± 0.16 and 2.86 ± 0.23.
The corresponding values for REDKATIKCETSPPSSPRTLRLEK [PPFIA4] are 5.51 ± 0.18 and 5.45 ± 0.15.
The like results for REEDFPSLREYNDFLEEVEEIVFN [MNAT1] were, in that order, 3.82 ± 0.16 and 3.73 ± 0.28.
For the sequence REEEEKTPPETKPDPPVNFLRQKV [PCMTD2], the protein stability index was determined as 5.34 ± 0.26 (treatment: DMSO) and 5.29 ± 0.087 (treatment: MLN4924 1 uM, 8 h).
The corresponding values for REKGGKVLVHCEAGISRSPTICMA [DUSP5] are 2.93 ± 0.27 and 3.03 ± 0.38.
The corresponding values for RELAERGVRIVSRGRTQLFSLNPR [PCDHGA10] are 3.2 ± 0.35 and 3.33 ± 0.12.
